Our source for the Kd values is article PMC5304201 (2017).

The target of this assay is Amyloid-beta 42 oligomers Abeta42 (Homo sapiens, UniProt P05067, biotinylated Abeta42 oligomers, HA-tagged NRX1beta). In words: cell surface binding assay, Scatchard.

B1: Neurexin-1beta S4(-) (protein)
chain: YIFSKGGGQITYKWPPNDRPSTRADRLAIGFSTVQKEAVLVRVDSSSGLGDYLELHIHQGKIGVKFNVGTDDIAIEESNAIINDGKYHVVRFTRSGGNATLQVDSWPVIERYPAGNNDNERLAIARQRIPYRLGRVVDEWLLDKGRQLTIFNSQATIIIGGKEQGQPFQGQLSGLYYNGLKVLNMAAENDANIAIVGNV
For B1, binding was put at a Kd of 184 nM.

As usually defined, the Kd is the constant that tells how readily two partners part at equilibrium. Low values mean higher affinity, high ones lower affinity.
